From paper PMC6368843 (Biochemistry, 2016)

Legend:
[1] = target: T1, Purβ FL (full-length NHis-Purβ) (Mus musculus, UniProt O35295); assay: ssDNA-binding ELISA
T1 sequence (O35295 1-324): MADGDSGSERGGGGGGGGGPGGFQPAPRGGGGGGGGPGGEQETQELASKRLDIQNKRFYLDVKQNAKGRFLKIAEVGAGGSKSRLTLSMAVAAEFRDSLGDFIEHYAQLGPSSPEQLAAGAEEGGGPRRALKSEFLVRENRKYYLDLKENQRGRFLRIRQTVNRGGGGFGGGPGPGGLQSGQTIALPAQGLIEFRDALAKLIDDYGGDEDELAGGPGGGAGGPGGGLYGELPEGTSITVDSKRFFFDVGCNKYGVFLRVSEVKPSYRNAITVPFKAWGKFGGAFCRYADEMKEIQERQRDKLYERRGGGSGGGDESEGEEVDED

[2] = target: T2, Purβ III (Mus musculus, UniProt O35295); assay: ssDNA-binding ELISA
T2 sequence (O35295 209-303): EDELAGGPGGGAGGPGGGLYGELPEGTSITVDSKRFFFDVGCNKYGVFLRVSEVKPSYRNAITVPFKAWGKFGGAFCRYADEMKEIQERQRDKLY

[3] = target: T3, Purβ I-II-III (Mus musculus, UniProt O35295); assay: ssDNA-binding ELISA
T3 sequence (O35295 41-303): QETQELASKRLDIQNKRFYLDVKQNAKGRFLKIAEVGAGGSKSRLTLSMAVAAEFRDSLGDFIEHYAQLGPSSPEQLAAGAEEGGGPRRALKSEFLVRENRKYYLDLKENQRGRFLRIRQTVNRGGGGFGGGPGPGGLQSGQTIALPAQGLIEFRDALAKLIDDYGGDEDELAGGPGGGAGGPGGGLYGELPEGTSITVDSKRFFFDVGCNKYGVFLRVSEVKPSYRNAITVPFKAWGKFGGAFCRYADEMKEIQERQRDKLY

[4] = target: the molecule itself; assay: SEC
[5] = target: T4, Purβ FL (wild-type NHis-Purβ) (Mus musculus, UniProt O35295 1-324); assay: ELISA
T4 sequence: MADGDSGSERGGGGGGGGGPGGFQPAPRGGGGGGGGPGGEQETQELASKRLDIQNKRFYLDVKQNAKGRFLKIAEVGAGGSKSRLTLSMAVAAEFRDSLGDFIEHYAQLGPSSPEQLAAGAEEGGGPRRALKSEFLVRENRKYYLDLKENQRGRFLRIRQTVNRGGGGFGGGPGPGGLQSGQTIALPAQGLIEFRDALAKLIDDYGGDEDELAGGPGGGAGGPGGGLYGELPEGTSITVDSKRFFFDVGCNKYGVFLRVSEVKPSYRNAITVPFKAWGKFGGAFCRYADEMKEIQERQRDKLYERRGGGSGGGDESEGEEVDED

[6] = target: T5, Purβ R159A/R267A (Mus musculus, UniProt O35295 1-324, R159A;R267A); assay: ELISA
T5 sequence: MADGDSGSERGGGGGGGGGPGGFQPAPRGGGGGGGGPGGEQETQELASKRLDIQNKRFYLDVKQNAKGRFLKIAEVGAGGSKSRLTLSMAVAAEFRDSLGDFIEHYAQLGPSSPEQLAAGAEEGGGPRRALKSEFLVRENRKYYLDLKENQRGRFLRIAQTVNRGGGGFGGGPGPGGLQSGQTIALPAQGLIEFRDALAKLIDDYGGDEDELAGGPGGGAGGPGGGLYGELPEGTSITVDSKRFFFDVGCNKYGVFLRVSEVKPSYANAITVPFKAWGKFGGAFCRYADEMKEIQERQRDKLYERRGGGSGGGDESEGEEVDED

[7] = target: T6, Purβ R267A (Mus musculus, UniProt O35295 1-324, R267A); assay: ELISA
T6 sequence: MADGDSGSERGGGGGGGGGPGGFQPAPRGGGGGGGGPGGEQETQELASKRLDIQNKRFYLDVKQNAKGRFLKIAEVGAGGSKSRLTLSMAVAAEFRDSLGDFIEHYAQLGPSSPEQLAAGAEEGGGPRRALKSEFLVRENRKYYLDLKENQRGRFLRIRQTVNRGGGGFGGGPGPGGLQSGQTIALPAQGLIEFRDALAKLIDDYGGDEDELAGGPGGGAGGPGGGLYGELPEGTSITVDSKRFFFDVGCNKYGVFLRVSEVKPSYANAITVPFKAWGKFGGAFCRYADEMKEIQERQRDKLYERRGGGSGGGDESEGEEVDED

C[C@H](CCC(=O)O)[C@H]1CC[C@H]2[C@@H]3CC[C@@H]4C[C@H](O)CC[C@]4(C)[C@H]3C[C@H](O)[C@]12C [sodium deoxycholate]
IC50 [1]: 2360 µM | IC50 [2]: 1450 µM | IC50 [3]: 2030 µM

B1: Purβ K82A/R159A/R267A triple point mutant, N-terminally hexahistidine-tagged (natural protein, mouse, UniProt O35295 1-324, looked up)
chain: MADGDSGSERGGGGGGGGGPGGFQPAPRGGGGGGGGPGGEQETQELASKRLDIQNKRFYLDVKQNAKGRFLKIAEVGAGGSASRLTLSMAVAAEFRDSLGDFIEHYAQLGPSSPEQLAAGAEEGGGPRRALKSEFLVRENRKYYLDLKENQRGRFLRIAQTVNRGGGGFGGGPGPGGLQSGQTIALPAQGLIEFRDALAKLIDDYGGDEDELAGGPGGGAGGPGGGLYGELPEGTSITVDSKRFFFDVGCNKYGVFLRVSEVKPSYANAITVPFKAWGKFGGAFCRYADEMKEIQERQRDKLYERRGGGSGGGDESEGEEVDED
stoichiometry N [4]: 2

B2: Purβ R159A/R267A double point mutant, N-terminally hexahistidine-tagged (natural protein, mouse, UniProt O35295 1-324, looked up)
chain: MADGDSGSERGGGGGGGGGPGGFQPAPRGGGGGGGGPGGEQETQELASKRLDIQNKRFYLDVKQNAKGRFLKIAEVGAGGSKSRLTLSMAVAAEFRDSLGDFIEHYAQLGPSSPEQLAAGAEEGGGPRRALKSEFLVRENRKYYLDLKENQRGRFLRIAQTVNRGGGGFGGGPGPGGLQSGQTIALPAQGLIEFRDALAKLIDDYGGDEDELAGGPGGGAGGPGGGLYGELPEGTSITVDSKRFFFDVGCNKYGVFLRVSEVKPSYANAITVPFKAWGKFGGAFCRYADEMKEIQERQRDKLYERRGGGSGGGDESEGEEVDED
stoichiometry N [4]: 2

B3: Purβ R267A single point mutant, N-terminally hexahistidine-tagged (natural protein, mouse, UniProt O35295 1-324, looked up)
chain: MADGDSGSERGGGGGGGGGPGGFQPAPRGGGGGGGGPGGEQETQELASKRLDIQNKRFYLDVKQNAKGRFLKIAEVGAGGSKSRLTLSMAVAAEFRDSLGDFIEHYAQLGPSSPEQLAAGAEEGGGPRRALKSEFLVRENRKYYLDLKENQRGRFLRIRQTVNRGGGGFGGGPGPGGLQSGQTIALPAQGLIEFRDALAKLIDDYGGDEDELAGGPGGGAGGPGGGLYGELPEGTSITVDSKRFFFDVGCNKYGVFLRVSEVKPSYANAITVPFKAWGKFGGAFCRYADEMKEIQERQRDKLYERRGGGSGGGDESEGEEVDED
stoichiometry N [4]: 2

B4: PE32-bF (ssDNA)
DNA: GGGAGCAGAACAGAGGAATGCAGTGGAAGAGA
Kd [5]: 0.00017 ± 1e-05 µM | Kd [6]: 0.0006 ± 4e-05 µM | Kd [7]: 0.00057 ± 4e-05 µM
